From US20200317755A1
Read-outs that look alike come from different tables or passages of the source.

Key:
[1] = molecular target: T1, panel of four distinct ZIKV strains (H/PF/2013; MR766, MRS-OPY and PV 10552); assay: cell-based or functional assay
[2] = molecular target: T1, panel of four distinct ZIKV strains …; assay: cell-based or functional assay; remark: listed apart in the source

B1: ZKA190 (antibody, V domains shown)
VH: QVQLVESGGGVVQPGRSLRLSCAASGFTFSKYGMHWVRQAPGKGLEWVAVISYEGSNKYYADSVKGRFTISRDNSKNTLYLQMNSLRAEDTAVYYCAKSGTQYYDTTGYEYRGLEYFGYWGQGTLVTVSS
VL: EIVLTQSPGTLSLSPGERATLSCRASQSVSSSYLAWYQQKRGQAPRLLIYDASSRATGIPDRFSGSGSGTDFTLTISRLEPEDFAVYYCQQYGRSRWTFGQGTKVEIK
IC50, neutralization of four ZIKV strains on Vero cells (flow cytometry) [1]: 0.004 to 0.05 nM
IC50, neutralization of four ZIKV strains on Vero cells (flow cytometry) [2]: 0.6 to 8 ng/mL
